For the data set, the target named is T1, GST-HY5 (Arabidopsis thaliana, UniProt O24646 1-168).
T1 sequence: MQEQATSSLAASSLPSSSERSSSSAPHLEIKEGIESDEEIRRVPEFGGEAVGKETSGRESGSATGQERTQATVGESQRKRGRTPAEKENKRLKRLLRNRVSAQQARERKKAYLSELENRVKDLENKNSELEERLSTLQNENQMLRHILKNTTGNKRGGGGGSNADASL
Briefly: EMSA; 5 ug protein, 20 fmol probe; shift abolished by unlabeled 52-bp competitor (0.5-4 pmol); LightShift Chemiluminescent EMSA kit (Pierce), 20 uL, 8% native PAGE in 1x TBE; salt, pH and temperature not stated. The following applies: protein: recombinant; tags: N-terminal GST (pGEX-4T-1); chain copies: 2; label: biotin; blunt.

B1: 391-442 (QH6 promoter G-box probe) (dsDNA)
DNA 1: CCTTTAAGTTGCTCTATTTTGACACGTGGCAAAATAATATCTATCTACCCAC
DNA 2: GTGGGTAGATAGATATTATTTTGCCACGTGTCAAAATAGAGCAACTTAAAGG
For B1, the binding result is “binds”.

Source of the values: article PMC4415419, “The bZIP transcription factor HY5 interacts with the promoter of the monoterpene synthase gene QH6 in modulating its rhythmic expression”.
